Measurements taken from US20220348609A1 (University of Washington, published 2022).

Legend:
[1] = target: T1, αiibβ3 integrin on stably transfected K562 cells (UniProt P08514 32-1039; P05106 27-788, limits assumed); test: cell surface binding on stably transfected K562 cells
T1 construct: whole, on cells; also called aiibb3; alpha (iib) beta (3) integrin

[2] = target: T2, α5β1 integrin on stably transfected K562 cells (UniProt P08648 42-1049; P05556 21-798, limits assumed); test: as above
T2 construct: whole, on cells; also called a5b1; alpha 5 beta 1

[3] = target: T3, αvβ5 integrin on stably transfected K562 cells (UniProt P06756 31-1048; P18084 24-799, limits assumed); test: as above
T3 construct: whole, on cells; also called avb5; alpha(v) beta (5) integrin
T3 sequence (P06756 31-1048 limits assumed, chain 1 of 2): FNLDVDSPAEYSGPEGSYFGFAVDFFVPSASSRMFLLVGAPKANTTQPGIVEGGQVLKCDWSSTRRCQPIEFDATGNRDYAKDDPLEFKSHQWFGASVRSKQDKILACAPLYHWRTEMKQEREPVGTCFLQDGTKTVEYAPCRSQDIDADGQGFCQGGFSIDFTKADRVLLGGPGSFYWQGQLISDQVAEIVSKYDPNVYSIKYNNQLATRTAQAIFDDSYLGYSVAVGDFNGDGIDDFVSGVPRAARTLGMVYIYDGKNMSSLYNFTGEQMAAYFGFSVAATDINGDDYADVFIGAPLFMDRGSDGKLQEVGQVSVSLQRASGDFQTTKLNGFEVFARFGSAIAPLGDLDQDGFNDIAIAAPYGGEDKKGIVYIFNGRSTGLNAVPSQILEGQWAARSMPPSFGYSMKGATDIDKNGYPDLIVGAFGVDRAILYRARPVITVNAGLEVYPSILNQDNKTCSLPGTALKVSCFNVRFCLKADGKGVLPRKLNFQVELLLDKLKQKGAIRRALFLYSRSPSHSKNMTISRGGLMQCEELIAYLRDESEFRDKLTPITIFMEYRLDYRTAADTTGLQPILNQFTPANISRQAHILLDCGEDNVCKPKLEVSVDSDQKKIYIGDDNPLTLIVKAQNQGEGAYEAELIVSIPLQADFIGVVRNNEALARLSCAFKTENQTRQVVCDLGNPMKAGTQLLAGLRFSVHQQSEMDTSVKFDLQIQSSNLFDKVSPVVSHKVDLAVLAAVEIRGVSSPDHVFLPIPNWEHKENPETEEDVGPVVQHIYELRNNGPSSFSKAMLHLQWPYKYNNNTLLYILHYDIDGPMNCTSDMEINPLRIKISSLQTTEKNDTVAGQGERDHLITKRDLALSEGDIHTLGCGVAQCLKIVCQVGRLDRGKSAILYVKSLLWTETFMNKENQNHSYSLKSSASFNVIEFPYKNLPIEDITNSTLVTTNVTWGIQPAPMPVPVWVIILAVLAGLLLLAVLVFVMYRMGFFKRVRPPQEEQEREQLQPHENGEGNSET
T3 sequence (P18084 24-799 limits assumed, chain 2 of 2): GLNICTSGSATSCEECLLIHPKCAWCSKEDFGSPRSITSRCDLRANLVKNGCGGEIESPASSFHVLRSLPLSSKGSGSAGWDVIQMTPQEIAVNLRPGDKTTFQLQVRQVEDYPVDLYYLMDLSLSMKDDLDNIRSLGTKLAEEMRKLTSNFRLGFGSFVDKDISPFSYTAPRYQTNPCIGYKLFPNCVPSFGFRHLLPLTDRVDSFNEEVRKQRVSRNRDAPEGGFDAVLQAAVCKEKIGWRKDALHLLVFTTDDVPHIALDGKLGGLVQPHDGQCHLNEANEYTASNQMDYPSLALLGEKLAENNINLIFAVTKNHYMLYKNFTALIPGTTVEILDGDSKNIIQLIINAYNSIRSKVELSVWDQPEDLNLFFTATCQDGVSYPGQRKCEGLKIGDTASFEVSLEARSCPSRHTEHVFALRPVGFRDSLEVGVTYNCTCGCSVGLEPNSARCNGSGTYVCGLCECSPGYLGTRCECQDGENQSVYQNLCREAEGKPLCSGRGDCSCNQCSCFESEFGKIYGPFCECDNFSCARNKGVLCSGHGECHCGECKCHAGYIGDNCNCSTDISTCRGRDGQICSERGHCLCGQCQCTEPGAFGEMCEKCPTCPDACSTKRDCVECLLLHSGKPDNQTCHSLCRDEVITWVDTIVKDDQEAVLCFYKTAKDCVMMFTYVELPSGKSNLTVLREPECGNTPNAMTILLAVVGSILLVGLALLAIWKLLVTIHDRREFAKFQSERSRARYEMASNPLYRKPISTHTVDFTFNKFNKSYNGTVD

[4] = target: T4, α8β1 integrin on stably transfected K562 cells (UniProt P53708 39-1063; P05556 21-798, limits assumed); test: as above
T4 construct: whole, on cells; also called a8b1; alpha 8 beta 1

[5] = target: T5, αvβ3 integrin on stably transfected K562 cells (UniProt P06756 31-1048; P05106 27-788, limits assumed); test: as above
T5 construct: whole, on cells; also called avb3; alpha(v) beta (3) integrin
T5 sequence (P06756 31-1048 limits assumed, chain 1 of 2): as the sequence (P06756 31-1048 limits assumed, chain 1 of 2) above
T5 sequence (P05106 27-788 limits assumed, chain 2 of 2): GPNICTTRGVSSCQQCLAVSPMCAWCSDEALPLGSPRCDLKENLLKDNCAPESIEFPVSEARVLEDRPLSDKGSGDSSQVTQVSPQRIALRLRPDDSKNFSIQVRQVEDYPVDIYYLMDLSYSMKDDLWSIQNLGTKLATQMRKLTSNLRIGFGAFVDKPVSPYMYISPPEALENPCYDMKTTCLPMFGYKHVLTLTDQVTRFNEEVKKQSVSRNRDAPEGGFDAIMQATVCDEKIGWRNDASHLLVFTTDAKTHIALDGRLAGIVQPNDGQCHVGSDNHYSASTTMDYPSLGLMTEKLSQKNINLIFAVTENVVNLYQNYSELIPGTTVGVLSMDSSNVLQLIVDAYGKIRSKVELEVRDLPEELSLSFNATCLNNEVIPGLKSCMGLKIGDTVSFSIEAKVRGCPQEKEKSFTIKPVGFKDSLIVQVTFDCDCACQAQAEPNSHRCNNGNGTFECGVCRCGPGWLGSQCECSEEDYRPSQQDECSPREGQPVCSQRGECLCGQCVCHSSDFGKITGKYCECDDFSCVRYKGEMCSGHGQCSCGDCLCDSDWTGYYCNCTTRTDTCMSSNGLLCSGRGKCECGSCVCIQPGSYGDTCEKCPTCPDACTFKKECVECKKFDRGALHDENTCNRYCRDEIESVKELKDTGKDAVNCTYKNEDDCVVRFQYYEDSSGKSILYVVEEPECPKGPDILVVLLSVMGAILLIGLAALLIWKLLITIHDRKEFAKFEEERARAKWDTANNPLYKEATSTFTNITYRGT

[6] = target: T6, αvβ1 integrin on stably transfected K562 cells (UniProt P06756 31-1048; P05556 21-798, limits assumed); test: as above
T6 construct: whole, on cells; also called avb1; alpha(v) beta (1) integrin

[7] = target: T7, human αvβ8 integrin on cells (K562 cells stably transfected with αvβ8; HeLa b8 cells in the TMLC assay) (human, UniProt P06756 31-1048; P26012 43-769); test: cell surface titration on K562 cells stably transfected with αvβ8; K562 cells with αvβ8; BP1 lacking A39K
T7 construct: whole, on cells; also called avb8; alpha(v) beta (8) integrin

[8] = target: T8, human αvβ6 integrin on cells (A431 carcinoma cells; K562 cells stably transfected with αvβ6) (human, UniProt P06756 31-1048; P18564 22-788); test: cell-based or functional assay
T8 sequence (P06756 31-1048, chain 1 of 2): as the sequence (P06756 31-1048 limits assumed, chain 1 of 2) above
T8 sequence (P18564 22-788, chain 2 of 2): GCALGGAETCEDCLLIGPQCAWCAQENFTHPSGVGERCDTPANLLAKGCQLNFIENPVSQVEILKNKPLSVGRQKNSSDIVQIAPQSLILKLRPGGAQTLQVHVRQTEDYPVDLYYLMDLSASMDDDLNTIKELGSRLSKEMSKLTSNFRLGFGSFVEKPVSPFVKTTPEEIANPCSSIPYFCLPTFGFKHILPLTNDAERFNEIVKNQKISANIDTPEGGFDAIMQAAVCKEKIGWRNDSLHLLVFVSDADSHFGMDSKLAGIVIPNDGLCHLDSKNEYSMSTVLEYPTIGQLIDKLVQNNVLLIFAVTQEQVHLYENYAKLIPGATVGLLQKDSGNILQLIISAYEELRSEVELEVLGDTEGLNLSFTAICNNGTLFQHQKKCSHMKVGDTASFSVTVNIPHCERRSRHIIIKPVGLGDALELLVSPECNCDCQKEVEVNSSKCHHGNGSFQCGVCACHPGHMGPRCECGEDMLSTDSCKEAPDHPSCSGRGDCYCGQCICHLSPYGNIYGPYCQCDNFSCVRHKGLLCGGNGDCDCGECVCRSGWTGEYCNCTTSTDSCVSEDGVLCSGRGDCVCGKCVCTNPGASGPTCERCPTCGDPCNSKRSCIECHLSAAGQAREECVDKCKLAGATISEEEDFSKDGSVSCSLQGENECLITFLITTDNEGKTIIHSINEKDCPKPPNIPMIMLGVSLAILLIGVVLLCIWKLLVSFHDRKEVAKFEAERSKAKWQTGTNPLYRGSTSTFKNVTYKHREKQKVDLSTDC

[9] = target: T9, human αvβ6 integrin, soluble protein (biotinylated for yeast display; in solution for BLI) (human, UniProt P06756 31-992; P18564 22-707, limits assumed, biotinylated in the yeast display experiments (site not stated)); test: BLI (Octet RED96), His-tagged binder on Ni-NTA sensor, αvβ6 in solution
T9 construct: also called avb6; alpha(v) beta (6) integrin
T9 sequence (P06756 31-992 limits assumed, chain 1 of 2): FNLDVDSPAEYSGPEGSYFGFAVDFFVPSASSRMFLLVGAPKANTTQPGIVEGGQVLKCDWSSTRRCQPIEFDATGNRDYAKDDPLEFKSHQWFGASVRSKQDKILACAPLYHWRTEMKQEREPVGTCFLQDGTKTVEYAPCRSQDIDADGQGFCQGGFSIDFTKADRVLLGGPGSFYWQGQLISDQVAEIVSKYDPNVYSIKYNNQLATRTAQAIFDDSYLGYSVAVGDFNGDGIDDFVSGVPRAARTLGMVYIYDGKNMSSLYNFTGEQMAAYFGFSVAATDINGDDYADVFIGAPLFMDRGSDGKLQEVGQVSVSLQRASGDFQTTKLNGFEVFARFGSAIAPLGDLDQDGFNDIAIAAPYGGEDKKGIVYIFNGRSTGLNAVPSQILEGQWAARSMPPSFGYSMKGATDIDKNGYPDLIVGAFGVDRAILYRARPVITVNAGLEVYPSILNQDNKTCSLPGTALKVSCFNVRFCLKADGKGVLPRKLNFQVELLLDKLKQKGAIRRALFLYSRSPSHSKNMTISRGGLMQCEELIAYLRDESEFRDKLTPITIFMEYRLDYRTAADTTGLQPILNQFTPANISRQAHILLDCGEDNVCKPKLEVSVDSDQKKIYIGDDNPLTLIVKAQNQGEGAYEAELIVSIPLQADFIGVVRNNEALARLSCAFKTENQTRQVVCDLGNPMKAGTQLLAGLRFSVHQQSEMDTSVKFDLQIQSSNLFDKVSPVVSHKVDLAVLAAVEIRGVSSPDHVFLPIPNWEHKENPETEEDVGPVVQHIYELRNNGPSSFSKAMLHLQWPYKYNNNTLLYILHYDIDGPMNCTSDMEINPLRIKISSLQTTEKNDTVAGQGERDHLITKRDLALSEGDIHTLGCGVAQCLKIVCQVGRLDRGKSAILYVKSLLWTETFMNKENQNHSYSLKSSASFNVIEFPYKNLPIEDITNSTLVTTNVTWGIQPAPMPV
T9 sequence (P18564 22-707 limits assumed, chain 2 of 2): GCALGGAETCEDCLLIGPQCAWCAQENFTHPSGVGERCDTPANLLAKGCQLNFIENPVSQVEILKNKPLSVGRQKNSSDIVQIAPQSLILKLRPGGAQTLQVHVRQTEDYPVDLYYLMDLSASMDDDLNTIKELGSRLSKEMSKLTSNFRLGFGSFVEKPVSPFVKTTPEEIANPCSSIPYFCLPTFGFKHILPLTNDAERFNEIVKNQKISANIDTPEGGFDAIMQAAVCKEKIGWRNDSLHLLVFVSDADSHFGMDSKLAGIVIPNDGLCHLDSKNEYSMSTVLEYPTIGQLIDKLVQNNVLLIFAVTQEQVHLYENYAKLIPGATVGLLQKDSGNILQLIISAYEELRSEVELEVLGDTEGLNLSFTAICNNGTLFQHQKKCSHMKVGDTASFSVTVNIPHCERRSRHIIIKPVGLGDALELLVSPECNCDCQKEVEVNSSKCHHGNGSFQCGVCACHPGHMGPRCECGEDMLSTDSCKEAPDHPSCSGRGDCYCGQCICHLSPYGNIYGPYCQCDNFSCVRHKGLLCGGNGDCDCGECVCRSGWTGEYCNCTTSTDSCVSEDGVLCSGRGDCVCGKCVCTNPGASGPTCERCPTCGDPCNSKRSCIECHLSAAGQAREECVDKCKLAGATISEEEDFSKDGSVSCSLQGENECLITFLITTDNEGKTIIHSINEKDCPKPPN
Procedure: (§1) Data was collected on an Octet™ RED96 (Forte Bio) and processed using the instrument's software. His Tagged protein binders were immobilized on Ni-NTA octet sensors. The tips are then dipped into wells containing different concentrations of αᵥβ₆. Association and dissociation steps were recorded for 900 s and 1200 s respectively. An empty sensor with no loaded binding protein was included to discard any non-specific binding of αᵥβ₆ to the octet tip.

[10] = target: T9, human αvβ6 integrin, soluble protein …; test: BLI titration of purified protein against αvβ6 (FIG. 2f,g); BLI, purified BP1 against αvβ6
Procedure: as §1

[11] = target: T8, human αvβ6 integrin on cells (A431 …); test: cell surface binding assay on K562 cells stably expressing αvβ6/αvβ8; reference αvβ8
[12] = target: T9, human αvβ6 integrin, soluble protein …; test: BLI titration of purified protein against αvβ6 (FIG. 2f,g); BLI, purified BP2 against αvβ6
Procedure: as §1

[13] = target: T9, human αvβ6 integrin, soluble protein …; test: binding assay not named

B1: BP1 (av6_3_E13T) (designed binder)
chain: MAVVRFVFRGDLATLMLRAVKDHLKKEGPHWNITSTNNGAELVVRGIHESDAKRIAKWVEKRFPGVHTETQQD
notes: also called BPI; not shown: C-terminal His tag (pET29b, NdeI/XhoI)
What does the source list for B1?
binding result [1]: no binding (tested: up to 200 nM); binding result [2]: no binding (tested: up to 200 nM); binding result [3]: no binding (tested: up to 200 nM); binding result [4]: no binding (tested: up to 200 nM); binding result [5]: no binding (tested: up to 200 nM); binding result [6]: no binding (tested: up to 200 nM); Kd [7]: ~7.3 nM; IC50 of the block of αvβ6 mediated TGF-β activation, TMLC luciferase reporter co-culture assay [8]: 0.199 nM; Kd [9]: 0.334 nM; Kd [10]: < 1 nM

B2: BP2 (av6_3_A39KG64R) (designed binder)
chain: MAVVRFVFRGDLAELMLRAVKDHLKKEGPHWNITSTNNGKELVVRGIHESDAKRIAKWVEKRFPRVHTETQQD
notes: not shown: C-terminal His tag (pET29b, NdeI/XhoI)
Does B2 bind [1]?
Result: no binding (tested: up to 200 nM)

Does B2 bind [2]?
Result: no binding (tested: up to 200 nM)

Does B2 bind [3]?
Result: no binding (tested: up to 200 nM)

Does B2 bind [4]?
Result: no binding (tested: up to 200 nM)

Does B2 bind [5]?
Result: no binding (tested: up to 200 nM)

Does B2 bind [6]?
Result: no binding (tested: up to 200 nM)

What about the “IC50 of the block of αvβ6 mediated TGF-β activation, TMLC luciferase reporter co-culture assay” value [8] of the same binder?
Its value is 0.151 nM.

What about the “fold specificity towards αvβ6 over αvβ8” value [11] of the same binder?
The value was greater than 5000 fold.

And the Kd [9]?
The Kd was 0.414 nM.

What about the Kd [12] of the same binder?
The Kd was less than 1 nM.

B3: BP2_disulf with knockout mutation of the RGD to KGE (designed binder)
chain: MTKCVVRFVFKGELAELMLRAVKDHLKKEGPHWNITSTNNGKELVVRGIHESDAKRIAKWVEKRFPRVHTETQCD
notes: if the listing entry starts with Met they are 11 and 13; also called KGE knockout of BP2_disulf
Does B3 bind [13]?
Result: no binding
